From paper PMC10102205, “Active and stable alcohol dehydrogenase-assembled hydrogels via synergistic bridging of triazoles and metal ions” (Nature Communications, 2023)

T1: TbSADH (Thermoanaerobacter brockii, UniProt P14941)
T1 construct: gene adh; recombinant from E. coli BL21(DE3), pET28a or pET22b vector, purified by AKTA; homotetramer
T1 sequence (P14941 1-352): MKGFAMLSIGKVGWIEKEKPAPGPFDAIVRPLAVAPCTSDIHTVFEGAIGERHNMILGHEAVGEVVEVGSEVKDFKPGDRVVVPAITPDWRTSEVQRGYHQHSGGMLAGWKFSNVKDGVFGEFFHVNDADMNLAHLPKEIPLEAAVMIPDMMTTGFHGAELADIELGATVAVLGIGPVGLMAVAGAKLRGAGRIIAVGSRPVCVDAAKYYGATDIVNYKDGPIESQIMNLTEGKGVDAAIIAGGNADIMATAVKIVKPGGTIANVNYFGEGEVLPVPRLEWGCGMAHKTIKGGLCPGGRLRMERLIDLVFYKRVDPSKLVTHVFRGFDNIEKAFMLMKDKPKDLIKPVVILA


What was measured:
[1] = target: T1, TbSADH; assay: isothermal titration calorimetry; format: binding
[2] = substrate: CC(=O)c1ccccc1; assay: asymmetric reduction, chiral HPLC, Michaelis–Menten fit; format: biochemical, Thermoanaerobacter brockii; conditions: free enzyme, not gelated, general assay: NADP^+ 1 mM, 10% IPA, phosphate buffer 50 mM pH 7.4, 30 °C

| Molecule | Kd [1] [µM] | Km [2] [mM] | kcat [2] [s⁻¹] |
| --- | --- | --- | --- |
| Cc1nnc[nH]1 [3-Me-3N, 1H-3-methyl-1,2,4-triazole] | 770 |  |  |
| TbSADH (Thermoanaerobacter brockii) (protein, recombinant from E. coli BL21(DE3), pET28a or pET22b vector, purified by AKTA; homotetramer) MKGFAMLSIGKVGWIEKEKPAPGPFDAIVRPLAVAPCTSDIHTVFEGAIGERHNMILGHEAVGEVVEVGSEVKDFKPGDRVVVPAITPDWRTSEVQRGYHQHSGGMLAGWKFSNVKDGVFGEFFHVNDADMNLAHLPKEIPLEAAVMIPDMMTTGFHGAELADIELGATVAVLGIGPVGLMAVAGAKLRGAGRIIAVGSRPVCVDAAKYYGATDIVNYKDGPIESQIMNLTEGKGVDAAIIAGGNADIMATAVKIVKPGGTIANVNYFGEGEVLPVPRLEWGCGMAHKTIKGGLCPGGRLRMERLIDLVFYKRVDPSKLVTHVFRGFDNIEKAFMLMKDKPKDLIKPVVILA |  | 17.86 | 2.46 |
